Substitutions are numbered along the chain they refer to. Non-standard residues stand in square brackets, D forms with d. No end group written: not given here. Ahx = NCCCCCC(=O)O
T1: A199 N-terminal neo-epitope peptide AGQPLQ-Acp-C (SEQ ID NO:51) conjugated to BSA (human, not fully specified (residue 8); printed as AGQPLQ-Acp-C; also: C-terminal Cys conjugated to BSA carrier)
T1 construct: BSA carrier; also called A199-BSA peptide
T1 peptide: AGQPLQ[Ahx]C

T2: G200 N-terminal neo-epitope peptide GQPLQE-Acp-C (SEQ ID NO:50) conjugated to BSA (human, not fully specified (residue 8); printed as GQPLQE-Acp-C; also: C-terminal Cys conjugated to BSA carrier)
T2 construct: also called G200-BSA peptide; G200-peptide
T2 peptide: GQPLQE[Ahx]C

B1: 23D5, recombinant IgG2c antibody (antibody, V domains shown)
VH: EVQLVESGGGLVKPGGSLKLSCSASGFTFSRYAMSWVRQSPEKRLEWVAEINSGGSYSFYSDTVTGRFTISRDNAKNTLFLEMSSLRSEDTAIYYCARQLSGTDYYGTDYWGQGTSVTVSS
VL: DVLMTQTPLSLPVSHGDQASISCRSSQSLLYSNGNTYLEWYLQKPGQSPKLLIYKVSNRFSGVPDRFSGSGSGTDFTLKISRVEAEDLGVYYCFQGSHVPYTFGGGTKLEIK
B2: 7C7, recombinant IgG2c antibody (antibody, V domains shown)
VH: EVQLVESGGGLVKPGGSLRLSCAASGFTFSSFAMSWVRQSPERRLEWVAEISRGGGYAFYSDTVTGRFTISRDNARNTLFLEMGSLRSEDTAMYYCSRQLTGTDYYAMDYWGQGTSVTVSS
VL: B1 VL with M4L, P12F, H15L, L29I, L30V, S32T, H98Q, I111L
B3: 7B10, recombinant IgG2c antibody (antibody, V domains shown)
VH: AVQLVESGGGLVKPGRSLKLSCAASGFTFSSYAMSWVRQFPDKRLDWVAEISSGGGSTNYLDTVTGRFTISRDNAKNTLYLEMNSLRSEDTAMYYCARQLVGTDYYGTDYWGQGTSVTVSS
VL: B1 VL with H15L, S28N, L29I, L30V
notes: also called 7610
B4: 28F2, recombinant IgG2c antibody (antibody, V domains shown)
VH: QIQLVQSGPDLKKPGETVKISCKASGYTFTNYAMHWMKQAPGKALKWMGWINTYTGEPTFADDFKGRFAFSLETSASTAYLQINSLKNEDMATYFCAREGYYDRSHYFDYWGQGTTLTVSS
VL: B1 VL with H15L, Q27L, L30V, Y31H, S32G, N33D, F94L, V99I, Y101F, G105S
B5: 4E6, recombinant IgG2c antibody (antibody, V domains shown)
VH: EVQLVESGGDLVKPGGSLKLSCAASGFTFSSYAMSWVRQSPEKRLEWVAEISGSGSRDHYTDSVTGRFTVSRDNAKNTLYLEMSSLRSEDTAIYYCARQLTGTDYYGTDYWGQGTSVTVSS
VL: B1 VL with T7I, H15L, L29I, L30V, K44R, V99L
notes: also called recombinant anti-G200 antibody 4E6
B6: 17G4, recombinant IgG2c antibody (antibody, V domains shown)
VH: B1 VH with S101T
VL: B1 VL

Each binder was assayed against T3, recombinant C-terminal ApoE fragment G200-HIS (ApoE-G200-H299-10xHIS) (human, UniProt P02649 218-317) (assay: SPR (Biacore 8K), G200-HIS amine-coupled on CM5, antibody as analyte, bivalent analyte fit (kd1)).
T3 construct: also called G200-HIS fragment
T3 sequence (P02649 other isoform, or with tags, fused parts or gaps limits assumed): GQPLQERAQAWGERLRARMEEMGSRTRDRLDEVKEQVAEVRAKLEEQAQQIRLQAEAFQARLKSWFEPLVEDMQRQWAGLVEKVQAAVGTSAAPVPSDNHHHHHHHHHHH

| Binder | koff [s⁻¹] |
| --- | --- |
| B1 | 0.0105 |
| B2 | 0.0029 |
| B3 | 0.0038 |
| B4 | 0.0035 |
| B5 | 0.006 |
| B6 | 0.0024 |

What follows are binders tested against T3, recombinant C-terminal ApoE fragment … (assay: SPR (Biacore 8K), G200-HIS amine-coupled on CM5, antibody as analyte, bivalent analyte fit (ka1)).

| Binder | kon [M⁻¹ s⁻¹] |
| --- | --- |
| B1 | 260000 |
| B2 | 2.88e+06 |
| B3 | 1.2e+06 |
| B4 | 4.98e+06 |
| B5 | 8.15e+07 |
| B6 | 8.73e+06 |

Biological target: T1, A199 N-terminal neo-epitope peptide …
Assay: direct ELISA, target coated at 1 ug/ml, antibody in 3-fold dilutions from 500 ng/ml, OD 450 nm
Procedure: (§1) Selectivity evaluation of recombinant antibodies by direct ELISA: The direct ELISA described below was used to evaluate the binding selectivity of the recombinant antibodies produced in Example 11.
(§2) The screening was performed according to standard ELISA protocols. Briefly, 1 μg/ml solutions of BSA-conjugated neo-epitope peptides, recombinant C-terminal ApoE fragment, negative control peptide and full-length ApoE were prepared by dilution in PBS. 50 μl/well were added to an ELISA half-area 96 well microtiter plate, the plate was sealed with adhesive sealer and incubated over night at 4° C. After discarding the solution, the plates were blocked with 150 μl/well of protein-free blocking solution (Pierce) for 1 h at room temperature with shake (900 rpm). The plates were washed four times with washing buffer containing 0.28 mM NaH₂PO₄, 2.5 mM Na₂HPO₄, 150 mM NaCl, 0.1% TWEEN®-20 and 0.0075% Kathon CG. Generated recombinant antibodies of interest were serially diluted 3-fold with a starting dilution at 0.5 μg/ml (mixed 1:1 with dilution buffer: PBS with 0.1% BSA and 0.05% TWEEN®-20). An anti-ApoE C-terminal antibody was used as a reference antibody (ApoE E-8 mouse monoclonal, cat. no. sc-393302; Santa Cruz Biotechnology). 50 μl/well were added into the ELISA plates and incubated for 2 h at room temperature with shake (900 rpm). The plates were washed four times as described previously. […] After another wash (as described previously), 50 μl/well of K-Blue® aqueous substrate (Neogen) were added, and the reaction was stopped after 5-15 min with 50 μl/well of 0.5 M […]. The optical density at 450 nm was read using an ELISA reader (Tecan).

| Binder | binding result |
| --- | --- |
| B1 | no binding (tested: 500 ng/ml) |
| B2 | no binding (tested: 500 ng/ml) |
| B3 | no binding (tested: 500 ng/ml) |
| B5 | no binding (tested: 500 ng/ml) |
| B6 | no binding (tested: 500 ng/ml) |

What follows are binders tested against T4, His-tagged recombinant full-length ApoE4, 10xHIS-ApoE4(1-299) (human, UniProt P02649 19-317) in the same assay as above.
T4 construct: also called ApoE4-FL-HIS
T4 sequence (P02649 other isoform, or with tags, fused parts or gaps limits assumed): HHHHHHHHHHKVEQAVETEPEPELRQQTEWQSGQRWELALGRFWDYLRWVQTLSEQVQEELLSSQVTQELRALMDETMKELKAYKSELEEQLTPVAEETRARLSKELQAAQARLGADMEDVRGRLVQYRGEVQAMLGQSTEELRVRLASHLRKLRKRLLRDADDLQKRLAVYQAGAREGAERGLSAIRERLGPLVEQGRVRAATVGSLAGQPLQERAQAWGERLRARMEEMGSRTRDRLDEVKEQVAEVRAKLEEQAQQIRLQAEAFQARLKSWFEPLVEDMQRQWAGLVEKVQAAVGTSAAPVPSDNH
Procedure: as §1, §2

| Binder | binding result |
| --- | --- |
| B1 | no binding (tested: 500 ng/ml) |
| B3 | no binding (tested: 500 ng/ml) |
| B4 | no binding (tested: 500 ng/ml) |
| B5 | no binding (tested: 500 ng/ml) |
| B6 | no binding (tested: 500 ng/ml) |

The binders below were run against T3, recombinant C-terminal ApoE fragment … (assay: BLI (Octet RED384), G200-HIS captured on anti-HIS biosensor, antibody as analyte, 1:2 bivalent analyte fit).
Procedure: Selectivity evaluation and KD determination of recombinant antibodies by bio-layer interferometry: Binding interactions between the N-terminal neo-epitope peptide G200 (SEQ ID NO:50) conjugated to BSA (ligand) and the recombinant antibodies produced in Example 11 (analyte) were evaluated using an Octet RED384 instrument (ForteBio). All analyzed proteins were diluted in 1×Kinetics Buffer (ForteBio).
To analyze the antibody-target interaction and to determine the binding affinity of the recombinant antibodies for recombinant C-terminal ApoE fragment G200-HIS (SEQ ID NO:48), anti-HIS capture biosensors (HIS1K) were used. In the first step (loading step), HIS-tagged recombinant C-terminal ApoE fragment was captured onto the surface of the biosensor. Next, a concentration gradient of pure antibodies was prepared ranging from 150 nM to 2.5 nM in 2-fold serial dilutions. Subsequently, the HIS1K biosensors with ligand were dipped in wells containing diluted antibodies, and the association phase was monitored for 600 s. For monitoring the dissociation phase, the HIS1K biosensors with ligand were moved to a well containing 1× Kinetics Buffer and the dissociation was monitored for 1000 s. For evaluation of the kinetic experiments, the Octet Data Analysis software was used. All values collected from interaction analysis were blank subtracted, and a 1:2 binding kinetics global fit model (bivalent analyte) was used for the evaluation.
Selectivity evaluation and KD determination of recombinant antibodies by bio-layer interferometry: Binding interactions between the recombinant G200 C-terminal ApoE fragment (ligand) and recombinant antibodies (analyte) were evaluated by using an Octet RED384 instrument (ForteBio).

| Binder | Kd [nM] |
| --- | --- |
| B1 | 5.2 |
| B2 | 1.9 |
| B3 | 0.8 |
| B4 | 9.7 |
| B5 | 0.9 |
| B6 | 0.8 |

Biological target: T2, G200 N-terminal neo-epitope peptide …
Assay: second direct ELISA, G200-BSA peptide coated at 1 µg/ml
Procedure: as §2, with “(Tecan). The optical density was plotted against the antibody concentration to generate concentration-response curves (FIG. 16).” for “(Tecan).”
These were added in the same molarity (0.1 μM) to provide an equal number of molecules available for binding by the antibodies (BSA-coupled peptides were coated at 1 μg/ml as before).

| Binder | EC50 [ng/mL] |
| --- | --- |
| B1 | 11.6 |
| B2 | 13 |
| B3 | 7.3 |
| B4 | 7.2 |
| B5 | 6.9 |
| B6 | 5.1 |
